The labels stand for the following.
B1: WVKRGRKKL (SEQ ID NO: 22) (peptide)
peptide: WVKRGRKKL
notes: synthetic 9-mer
B2: WVHRGRKKL (SEQ ID NO: 43) (peptide)
peptide: WVHRGRKKL
notes: synthetic 9-mer; the entry already carries the mutation
B3: WVQRGAKKL (SEQ ID NO: 84) (peptide)
peptide: WVQRGAKKL
notes: synthetic 9-mer; the entry already carries the mutations
B4: WVKRGRKKS (SEQ ID NO: 89) (peptide)
peptide: WVKRGRKKS
notes: as for B2
B5: WVLRGRKKL (SEQ ID NO: 36) (peptide)
peptide: WVLRGRKKL
notes: as for B2
B6: WVKRGLKKL (SEQ ID NO: 64) (peptide)
peptide: WVKRGLKKL
notes: as for B2
B7: WVQRGSKKL (SEQ ID NO: 80) (peptide)
peptide: WVQRGSKKL
notes: as for B3
B8: WVSRGRKKL (SEQ ID NO: 29) (peptide)
peptide: WVSRGRKKL
notes: as for B2
B9: IIFWVKRGH (SEQ ID NO: 65) (peptide)
peptide: IIFWVKRGH
notes: as for B2
B10: IIFWVQRGS (SEQ ID NO: 77) (peptide)
peptide: IIFWVQRGS
notes: as for B3
B11: IIFWVQRGN (SEQ ID NO: 85) (peptide)
peptide: IIFWVQRGN
notes: as for B3
B12: AFIIFWVKR (SEQ ID NO: 17) (peptide)
peptide: AFIIFWVKR
notes: synthetic 9-mer
B13: AFIIFWVQR (SEQ ID NO: 51) (peptide)
peptide: AFIIFWVQR
notes: as for B2
B14: AFIIFWVLR (SEQ ID NO: 31) (peptide)
peptide: AFIIFWVLR
notes: as for B2
B15: IFWVKRGRK (SEQ ID NO: 20) (peptide)
peptide: IFWVKRGRK
notes: synthetic 9-mer
B16: IFWVQRGSK (SEQ ID NO: 78) (peptide)
peptide: IFWVQRGSK
notes: as for B3
B17: IFWVLRGRK (SEQ ID NO: 34) (peptide)
peptide: IFWVLRGRK
notes: as for B2
B18: VAFIIFWVA (SEQ ID NO: 44) (peptide)
peptide: VAFIIFWVA
notes: as for B2
B19: VAFIIFWVH (SEQ ID NO: 37) (peptide)
peptide: VAFIIFWVH
notes: as for B2
B20: VAFIIFWVQ (SEQ ID NO: 50) (peptide)
peptide: VAFIIFWVQ
notes: as for B2
B21: FIIFWVKRG (SEQ ID NO: 18) (peptide)
peptide: FIIFWVKRG
notes: synthetic 9-mer
B22: FIIFWVLRG (SEQ ID NO: 32) (peptide)
peptide: FIIFWVLRG
notes: as for B2
B23: FIIFWVQRG (SEQ ID NO: 52) (peptide)
peptide: FIIFWVQRG
notes: as for B2
B24: FIIFWVSRG (SEQ ID NO: 25) (peptide)
peptide: FIIFWVSRG
notes: as for B2
B25: FWVKRGRKK (SEQ ID NO: 21) (peptide)
peptide: FWVKRGRKK
notes: synthetic 9-mer
B26: FWVKRGHKK (SEQ ID NO: 67) (peptide)
peptide: FWVKRGHKK
notes: as for B2
B27: FWVKRGAKK (SEQ ID NO: 71) (peptide)
peptide: FWVKRGAKK
notes: as for B2
B28: FWVKRGNKK (SEQ ID NO: 75) (peptide)
peptide: FWVKRGNKK
notes: as for B2
B29: FWVKRGSKK (SEQ ID NO: 59) (peptide)
peptide: FWVKRGSKK
notes: as for B2
B30: FWVQRGSKK (SEQ ID NO: 79) (peptide)
peptide: FWVQRGSKK
notes: as for B3
B31: FWVHRGRKK (SEQ ID NO: 42) (peptide)
peptide: FWVHRGRKK
notes: as for B2
B32: FWVKRGLKK (SEQ ID NO: 63) (peptide)
peptide: FWVKRGLKK
notes: as for B2
B33: FWVQRGAKK (SEQ ID NO: 83) (peptide)
peptide: FWVQRGAKK
notes: as for B3
B34: FWVLRGRKK (SEQ ID NO: 35) (peptide)
peptide: FWVLRGRKK
notes: as for B2
B35: FWVSRGRKK (SEQ ID NO: 28) (peptide)
peptide: FWVSRGRKK
notes: as for B2
B36: FWVQRGNKK (SEQ ID NO: 87) (peptide)
peptide: FWVQRGNKK
notes: as for B3
B37: FWVQRGRKK (SEQ ID NO: 55) (peptide)
peptide: FWVQRGRKK
notes: as for B2
B38: FWVARGRKK (SEQ ID NO: 48) (peptide)
peptide: FWVARGRKK
notes: as for B2

One test deals with T1, HLA-A*11:01 (human).
T1 construct: Recombinant MHC class I molecule without the test peptide; the peptide is the other partner
The test can be described thus: REVEAL MHC-peptide binding assay, recombinant HLA-A*11:01. As for the experimental part:
(§1) Specifically, assessment was of a series of overlapping 9-mer peptides derived from the sequence […] (set forth in SEQ ID NO: 7), which contains a portion of the CD28 transmembrane domain and 4-1BB costimulatory domain spanning the junction between the domains (bond joining the two amino acids noted in underline). In addition, a series of overlapping 9-mer peptides of each of a number of different variants of this portion also were assessed, each variant containing a mutation or mutations in this region as described in Example 2.
(§2) The various 9-mer overlapping peptides were synthesized and their purity tested by MALDI-TOF Mass Spectrometry.
For B1, the “In Vitro Score” value was 4.8 % of positive control peptide.

B2: the “In Vitro Score” value is 5.6 % of positive control peptide.

For B3, the “In Vitro Score” value is 3.8 % of positive control peptide.

On to B4, for which the “In Vitro Score” value is 6.7 % of positive control peptide.

Regarding B5, the “In Vitro Score” value is 3.2 % of positive control peptide.

Take B6: the “In Vitro Score” value was 22.1 % of positive control peptide.

As to B7, the “In Vitro Score” value is 5.9 % of positive control peptide.

Take B8: the “In Vitro Score” value is 4.4 % of positive control peptide.

For the molecule B9, the “In Vitro Score” value was 19.5 % of positive control peptide.

For B10, the “In Vitro Score” value was 16.9 % of positive control peptide.

Take B11: the “In Vitro Score” value is 29 % of positive control peptide.

Turning to B12, the “In Vitro Score” value was 25.9 % of positive control peptide.

Regarding B13, the “In Vitro Score” value is 15 % of positive control peptide.

On to B14, for which the “In Vitro Score” value was 17.2 % of positive control peptide.

For B15, the “In Vitro Score” value was 29.3 % of positive control peptide.

For B16, the “In Vitro Score” value is 103 % of positive control peptide.

As for B17, the “In Vitro Score” value was 29.3 % of positive control peptide.

On to B18, for which the “In Vitro Score” value is 2.8 % of positive control peptide.

In the case of B19, the “In Vitro Score” value is 12.3 % of positive control peptide.

Turning to B20, the “In Vitro Score” value is 3.9 % of positive control peptide.

Turning to B21, the “In Vitro Score” value is 0.4 % of positive control peptide.

Consider B22, for which the “In Vitro Score” value was 2.4 % of positive control peptide.

Regarding B23, the “In Vitro Score” value is 1.5 % of positive control peptide.

For B24, the “In Vitro Score” value is 5.1 % of positive control peptide.

Take B25: the “In Vitro Score” value is 6.5 % of positive control peptide.

For B26, the “In Vitro Score” value is 27.6 % of positive control peptide.

On to B27, for which the “In Vitro Score” value was 13.2 % of positive control peptide.

For the molecule B28, the “In Vitro Score” value is 7.3 % of positive control peptide.

Turning to B29, the “In Vitro Score” value was 5.6 % of positive control peptide.

Regarding B30, the “In Vitro Score” value is 6.8 % of positive control peptide.

B31: the “In Vitro Score” value was 5.6 % of positive control peptide.

Take B32: the “In Vitro Score” value is 25.3 % of positive control peptide.

Turning to B33, the “In Vitro Score” value was 18.3 % of positive control peptide.

Take B34: the “In Vitro Score” value was 5 % of positive control peptide.

On to B35, for which the “In Vitro Score” value was 6.3 % of positive control peptide.

B36: the “In Vitro Score” value is 5.9 % of positive control peptide.

For B37, the “In Vitro Score” value was 5.7 % of positive control peptide.

A further test addresses T2, HLA-B*08:01 (human).
T2 construct: Recombinant MHC class I molecule without the test peptide; the peptide is the other partner
The test is described as follows: REVEAL MHC-peptide binding assay, recombinant HLA-B*08:01. As to the method:
as §1, §2
B1: the “In Vitro Score” value was 28.5 % of positive control peptide.

In the case of B2, the “In Vitro Score” value is 19.2 % of positive control peptide.

In the case of B3, the “In Vitro Score” value was 11.4 % of positive control peptide.

Turning to B4, the “In Vitro Score” value is 4.3 % of positive control peptide.

On to B5, for which the “In Vitro Score” value is 4 % of positive control peptide.

In the case of B6, the “In Vitro Score” value is 65.7 % of positive control peptide.

With B8, the “In Vitro Score” value was 6.2 % of positive control peptide.

Regarding B9, the “In Vitro Score” value was 0.1 % of positive control peptide.

For the molecule B10, the “In Vitro Score” value is 0.1 % of positive control peptide.

Turning to B11, the “In Vitro Score” value was 0 % of positive control peptide.

As to B12, the “In Vitro Score” value is 1.9 % of positive control peptide.

As for B13, the “In Vitro Score” value is 0 % of positive control peptide.

With B14, the “In Vitro Score” value was 0.2 % of positive control peptide.

Consider B15, for which the “In Vitro Score” value is 0.4 % of positive control peptide.

For the molecule B16, the “In Vitro Score” value is 0 % of positive control peptide.

On to B17, for which the “In Vitro Score” value is 0 % of positive control peptide.

Regarding B19, the “In Vitro Score” value is 0 % of positive control peptide.

For B21, the “In Vitro Score” value is 0.1 % of positive control peptide.

On to B22, for which the “In Vitro Score” value is 0.2 % of positive control peptide.

B23: the “In Vitro Score” value is 0.6 % of positive control peptide.

In the case of B24, the “In Vitro Score” value is 0.4 % of positive control peptide.

As for B25, the “In Vitro Score” value is 0 % of positive control peptide.

Regarding B26, the “In Vitro Score” value was 0.4 % of positive control peptide.

With B27, the “In Vitro Score” value was 0.3 % of positive control peptide.

With B28, the “In Vitro Score” value is 0.1 % of positive control peptide.

For B29, the “In Vitro Score” value was 0.1 % of positive control peptide.

In the case of B38, the “In Vitro Score” value is 0 % of positive control peptide.

As for B30, the “In Vitro Score” value was 0 % of positive control peptide.

On to B31, for which the “In Vitro Score” value is 0 % of positive control peptide.

Take B33: the “In Vitro Score” value was 0 % of positive control peptide.

For B34, the “In Vitro Score” value was 0 % of positive control peptide.

Turning to B35, the “In Vitro Score” value was 0 % of positive control peptide.

Regarding B36, the “In Vitro Score” value is 0 % of positive control peptide.

On to B37, for which the “In Vitro Score” value is 1.9 % of positive control peptide.

For the origin of these results see patent publication US20180355014A1 (JUNO THERAPEUTICS, published 2018).
